The target of experiment [1] is WTAP peptide (first 19 N-terminal amino acids) phosphorylated at S14 (UniProt Q15007). In words: fluorescence polarisation; fluorescence anisotropy; 90 nM labelled peptide (Atto-488 on CTD peptides, FAM on NCoR and FMR1 peptides) titrated with increasing concentrations of SPOC domain; 20 °C; 25 mM Tris-Cl pH 7.4, 25 mM NaCl, 1 mM DTT; three independent dilution series.

Experiment [2] has as its target 2×S5P CTD diheptapeptide. The experiment is described as above.

Chain of SHARP SPOC (3496–3664 aa) (Q96T58 3496-3664): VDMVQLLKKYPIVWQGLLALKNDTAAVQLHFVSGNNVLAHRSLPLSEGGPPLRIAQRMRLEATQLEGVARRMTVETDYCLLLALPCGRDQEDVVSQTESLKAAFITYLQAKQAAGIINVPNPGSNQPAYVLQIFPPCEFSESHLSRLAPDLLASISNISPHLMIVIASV

Regarding “RBM15 SPOC (775–960 aa) (from UniProt Q96T37 775-960) (domain or fragment)”, the Kd in experiment [1] was found to be 21.5 µM.

Substance “SHARP SPOC (3496–3664 aa) (from UniProt Q96T58 3496-3664) (domain or fragment)” yielded a Kd in experiment [2] of 20.6 µM.

The record behind these values is article PMC9834408, “The SPOC domain is a phosphoserine binding module that bridges transcription machinery with co- and post-transcriptional regulators” (Nature Communications, 2023).
